Patent US20250250308A1, “METHODS AND COMPOSITIONS WITH ANTIFUNGAL ACTIVITY” (priority 2022, published 2025)
Values joined by “and” are separate entries in the source; they are usually repeats but may differ in a detail not shown here. Equal entries are not always repeated.

B1: EntV: 68 amino acid active C-terminal form of the E. faecalis bacteriocin EntV (SEQ ID NO: 14) (protein, listed as Enterococcus faecalis)
chain: LGSCVANKIKDEFFAMISISAIVKAAQKKAWKELAVTVLRFAKANGLKTNAIIVAGQLALWAVQCGLS

Assays:
[1] = tested on: C. albicans; assay: Rat venous catheter biofilm model; assay type: in vivo; details: 24 h
Description: The wild-type 12-mer (SEQ ID NO: 4) is protective in a rat venous catheter model of C. albicans infection. C. albicans can form prodigious biofilms on implanted medical devices and the presence of an intravenous catheter is, by itself, a significant risk factor for developing disseminated candidiasis. These infections are notoriously difficult to treat and are associated with the drug resistance characteristic of biofilms. Thus, full-length EntV was tested in a model in which an intravenous catheter is implanted into the jugular vein of rats and inoculated with C. albicans with or without the peptide. After 24 hours, the catheter is removed and sectioned to assess fungal burden by plating for CFUs and by scanning electron microscopy (SEM). […] As the minimal peptide length was determined, this model utilized along with the 12-mer peptide, this time at a lower concentration to probe the extent of protection.
Rat catheter model: The protocol for the rat catheter biofilm was conducted as previously described (Andes, et al., 2004). Briefly, indwelling central venous catheters in rats were inoculated with 1×10^6 cells/mL C. albicans with or without 100 nM EntV or 20 nM 12-mer peptide (group size was 3). To quantitate fungal burden after 24 h, the catheter was removed, and 1 cm of the tip placed in a one milliliter of sterile 0.9% NaCl followed by vortexing. A 1:10 serial dilution of this wash fluid was plated on SDA and colonies counted after 24 h of growth at 35° C. For scanning electron microscopy (SEM), catheters were fixed overnight in 4% formaldehyde and 1% glutaraldehyde in PBS. The catheters were then washed with PBS and treated with 1% osmium tetroxide in PBS for 30 min. Serial ethanol washes and critical point drying were used to dry the segments before they were mounted, and palladium-gold coated. All images were taken using a SEM LEO 1530, with Adobe Photoshop CC (20.0.4 release) used for image compilation.

[2] = tested on: C. albicans; assay: Killing of C. elegans by C. albicans (survival of infected nematodes); assay type: in vivo; details: for Median survival: C. albicans infected C. elegans exposed to 1 nM peptide, one value per trial
Description: The α7 helix is sufficient to protect C. elegans and inhibit surface adhesion. Based on this structural characterization, fragments of EntV were examined to identify those structural moieties that retained antifungal activity. Synthetic peptides were generated of each of the four alpha helices (plus two flanking amino acids) from the active C-terminus of EntV—α4, α5, α6 and α7 (FIG. 1A) as well as an α4-α6 construct. The peptides were tested for their ability to protect C. elegans against C. albicans infection as established in previous work (Cruz et al., 2013; Graham et al., 2017).
Killing of C. elegans by C. albicans. The methodology used for the C. elegans infection assays was performed, with a few modifications, as described ((Breger et al., 2007; Cruz et al., 2013; Graham et al., 2017; Peleg et al., 2008)). Briefly, C. elegans glp-4(bn2); sek-1(km-4) (Breger et al., 2007) nematodes were propagated and maintained on E. coli strain OP50(Brenner, 1974) that was seeded onto nematode growth medium (NGM) agar using standard techniques (Hope, 1999). To synchronize the animals, L1 stage worms on non-starved plates were washed off, filtered through a 10 μm filter (pluriSelect, pluriStrainer 10 μm), harvested by centrifugation, transferred to OP50 seeded plates, and grown to the L4 stage. To prepare the infection plates, C. albicans strain […] (Gillum et al., 1984) was grown in YPD broth for 24 h at 37° C. with agitation. 500 μl of the culture was plated onto BHI solid medium containing gentamycin (10 μg/ml) and grown for 24 h at 37° C. The synchronized, L4 C. elegans were washed off the OP50 plates in 2 ml sterile M9 buffer and washed once, centrifuging at 750×g for 30 seconds to collect animals. Animals were infected by placing them on the SC5314 lawn for 4 h at 25° C. Following this exposure, they were washed off the plate and washed four times with 2 ml of sterile M9. The nematodes were then pipetted (˜30 per well with 2 wells per condition for a total of ˜60 worms assayed) into six-well plates with 2 ml of liquid medium (20% BHI broth and 80% M9) containing the indicated concentrations of test compounds. Plates were incubated at 25° C., and worm death was scored daily. Kaplan-Meier survival curves were generated and analyzed as described in the quantification and statistical analysis section.

[3] = tested on: Lactobacillus sakei ATCC 15521; assay: Lactobacillus MIC assay (growth in liquid culture); assay type: cell-based
Description: FIG. 8: EntV fragments have no inhibitory activity against Lactobacillus sakei. L. sakei was cultured in Lactobacilli MRS broth overnight and diluted 1/10 into fresh medium to which EntV and EntV fragments were added at various concentrations. After 24 hours of growth at 30° C., the OD625 readings were taken.
Lactobacillus MIC Assay. For this assay, Lactobacillus sakei ATCC 15521 (Torriani et al., 1996) was used following the methodology as described with a few modifications (Chang et al., 2011). Briefly L. sakei was grown in Lactobacilli MRS broth (Difco, Detroit, MI, USA) for 18 h at 30° C. without agitation (Malheiros et al., 2015). Following adjustment to a concentration of 1×10^6 cells/ml, cells were diluted 1:10 into fresh MRS medium containing the indicated concentrations of EntV fragments. After 24 hours of growth at 30° C. without agitation, OD625 readings were taken using a BioTek Cytation5 plate reader. Readings of blanks (containing fresh MRS medium) were subtracted from sample wells. Three technical replicates were averaged, and the experiment was repeated three times.

[4] = tested on: mouse cells; details: cited from earlier work
[5] = tested on: human cells; details: cited from earlier work
[6] = tested on: C. albicans; assay: Killing of C. elegans by C. albicans (survival of infected nematodes); assay type: in vivo; details: original strain and fluconazole-resistant descendent; 1 nM

Molecule | Catheter surface biofilm by SEM ([1]; 20 nM) | Reduction of catheter fungal burden ([1]; 20 nM) | Protection of C. elegans from C. albicans infection (survival) ([2]; 1 nM peptide) | Median survival [2] | Antibacterial (bacteriocin) activity against L. sakei ([3]; various concentrations, 24 hours) | Toxicity to mouse cells [4] | Catheter fungal burden (CFUs) ([1]; 100 nM, detection limit 100 CFU) | Lowest concentration abrogating growth of L. sakei ([3]; liquid culture, 24 hours at 30° C., OD625) | Toxicity to human cells [5] | Protection of C. elegans infected with paired C. albicans clinical isolates [6]
VAGQLALWAVQC [12aa] | largely clear of fungal biofilm | 1.5 logs | as effective in protecting against C. albicans infection in the worm model and inhibiting surface adhesion as full-length EntV | 11 days and 10 days and 12 days and 10.5 days and 9.5 days | no longer had bacteriocin activity | – | – | – | – | –
B1 | – | – | – | 11 days and 10.5 days and 13 days and 12 days and 10 days and 9.5 days and 9 days | – | no toxicity | below the limit of detection | ≤ 10 nM | no toxicity | protected
